Test results taken from paper PMC7000336, “Structural insights and activating mutations in diverse pathologies define mechanisms of deregulation for phospholipase C gamma enzymes” (EBioMedicine, 2020).

Key:
PLCγ1 (Homo sapiens) = PLCγ1 (Homo sapiens) (UniProt P19174); settings: cited from earlier work
Full-length human PLCγ1 = target: T1, Full-length human PLCγ1 (human, UniProt P19174 1-1290); experiment: cryo-EM structure; complex of PLCγ1 and FGFR1-1P (mixed 1:10, purified by SEC), cross-linked with BS3 and purified again; 0.6 mg/ml on grids; 25 mM HEPES, 150 mM NaCl, 2 mM TCEP, pH 7.5; no ATP; Titan Krios with Volta phase plate; map at 5–8 Å with known domain structures docked as rigid bodies; settings: both partners purified
T1 construct: phospholipase C gamma 1 (PLCγ1), human, full length; YFP fusions are named only for the lipid array (LiMA), so Myc is surmised here; Cloned in a Gateway-modified pTriEx4 and purified as a His-tagged protein; No removal of tags is described; also called hPLCγ1; intact PLCγ1; source: Freestyle 293F cells, transfected, purified (HisTrap, Superdex 200)
T1 sequence (looked up): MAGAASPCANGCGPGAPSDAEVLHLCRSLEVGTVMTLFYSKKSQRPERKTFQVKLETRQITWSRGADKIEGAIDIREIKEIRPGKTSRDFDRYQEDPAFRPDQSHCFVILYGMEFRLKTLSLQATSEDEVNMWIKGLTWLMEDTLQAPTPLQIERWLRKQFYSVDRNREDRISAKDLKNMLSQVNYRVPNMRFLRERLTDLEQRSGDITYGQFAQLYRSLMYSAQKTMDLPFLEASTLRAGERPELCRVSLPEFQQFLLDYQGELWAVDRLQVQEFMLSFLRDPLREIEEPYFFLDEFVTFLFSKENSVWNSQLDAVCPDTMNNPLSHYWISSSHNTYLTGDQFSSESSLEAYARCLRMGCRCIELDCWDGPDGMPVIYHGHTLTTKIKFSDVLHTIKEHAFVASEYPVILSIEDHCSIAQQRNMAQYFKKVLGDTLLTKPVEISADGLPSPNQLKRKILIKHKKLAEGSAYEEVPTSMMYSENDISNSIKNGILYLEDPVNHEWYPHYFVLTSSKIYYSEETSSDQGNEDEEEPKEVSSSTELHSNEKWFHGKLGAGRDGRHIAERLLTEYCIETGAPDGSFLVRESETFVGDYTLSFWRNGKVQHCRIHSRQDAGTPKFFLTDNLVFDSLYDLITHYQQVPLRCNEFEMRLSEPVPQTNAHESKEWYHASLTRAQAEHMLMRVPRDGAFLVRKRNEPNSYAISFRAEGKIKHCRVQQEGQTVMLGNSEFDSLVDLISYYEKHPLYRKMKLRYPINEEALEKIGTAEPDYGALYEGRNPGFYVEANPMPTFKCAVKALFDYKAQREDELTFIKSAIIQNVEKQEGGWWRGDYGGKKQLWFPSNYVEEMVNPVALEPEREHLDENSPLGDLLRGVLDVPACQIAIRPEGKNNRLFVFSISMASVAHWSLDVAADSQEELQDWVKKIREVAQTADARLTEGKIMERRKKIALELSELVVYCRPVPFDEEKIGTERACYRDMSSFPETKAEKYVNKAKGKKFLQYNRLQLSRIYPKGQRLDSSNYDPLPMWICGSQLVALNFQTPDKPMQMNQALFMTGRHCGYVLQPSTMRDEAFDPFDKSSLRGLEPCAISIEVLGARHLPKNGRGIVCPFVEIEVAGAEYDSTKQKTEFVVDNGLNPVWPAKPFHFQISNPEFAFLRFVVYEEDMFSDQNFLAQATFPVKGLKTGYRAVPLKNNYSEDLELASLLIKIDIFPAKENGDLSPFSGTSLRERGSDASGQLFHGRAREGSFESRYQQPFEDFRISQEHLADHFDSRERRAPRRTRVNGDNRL

Molecule: FGFR1 intracellular portion (from UniProt P11362)
- Kd (PLCγ1 (Homo sapiens)): 5 nM

B1: Human FGFR1 kinase domain (456–774, L457V, Y463F, C488A, Y583F, C584S, Y585F, Y653F and Y654F), FGFR1-1P (domain or fragment, UniProt P11362 456-774, looked up)
chain: MVAGVSEFELPEDPRWELPRDRLVLGKPLGEGAFGQVVLAEAIGLDKDKPNRVTKVAVKMLKSDATEKDLSDLISEMEMMKMIGKHKNIINLLGACTQDGPLYVIVEYASKGNLREYLQARRPPGLEFSFNPSHNPEEQLSSKDLVSCAYQVARGMEYLASKKCIHRDLAARNVLVTEDNVMKIADFGLARDIHHIDFFKKTTNGRLPVKWMAPEALFDRIYTHQSDVWSFGVLLWEIFTLGGSPYPGVPVEELFKLLKEGHRMDKPSNCTNELYMMMRDCWHAVPSQRPTFKQLVEDLDRIVALTSNQEYLDLSMPLD
modifications: phosphotyrosine at 766 (pY766; FGFR1-1P)
notes: The methods call the protein in the complex FGFR1-1P, and the results speak of pY766 in its C-terminal tail; How the phosphorylation was made is not described here; also called FGFR1int; FGFRint; source: E. coli C41 (DE3), purified (HisTrap, Ulp1 cleavage, HiTrap Q, Superdex 75); not shown: His tag, N-terminal, cleaved; SUMO (from the vector pOPINS, cut by Ulp1), N-terminal, cleaved
- binding result (Full-length human PLCγ1): binds
